In patent US20250215072A1 (published 2025):

Legend:
[1] = biological target: hGARP-proTGFβ1 presented on cells (human, UniProt P01137 30-390; Q14392 20-662); assay: cell-based or functional assay
[2] = biological target: hLTBP1-proTGFβ1 as produced in the cell-based activation assay (human, UniProt P01137 30-390; Q14766 347-1721); assay: cell-based or functional assay
[3] = biological target: hLTBP3-proTGFβ1 as produced in the cell-based activation assay (human, UniProt P01137 30-390; Q9NS15 44-1303); assay: cell-based or functional assay
[4] = biological target: hLRRC33-proTGFβ1 presented on cells (human, UniProt P01137 30-390; Q86YC3 19-692); assay: cell-based or functional assay
Sequence of hLRRC33-proTGFβ1 presented on cells (P01137 30-390 limits assumed, chain 1 of 2): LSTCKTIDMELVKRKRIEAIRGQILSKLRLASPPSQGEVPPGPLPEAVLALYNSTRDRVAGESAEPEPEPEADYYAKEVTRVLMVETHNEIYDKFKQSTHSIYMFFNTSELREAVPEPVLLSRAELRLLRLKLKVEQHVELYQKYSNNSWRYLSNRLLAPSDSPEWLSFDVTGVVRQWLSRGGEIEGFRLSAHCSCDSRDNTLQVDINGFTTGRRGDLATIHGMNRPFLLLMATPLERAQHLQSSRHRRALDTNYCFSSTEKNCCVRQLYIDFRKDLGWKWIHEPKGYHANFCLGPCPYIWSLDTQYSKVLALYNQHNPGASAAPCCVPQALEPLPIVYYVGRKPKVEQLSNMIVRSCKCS
Sequence of hLRRC33-proTGFβ1 presented on cells (Q86YC3 19-692 limits assumed, chain 2 of 2): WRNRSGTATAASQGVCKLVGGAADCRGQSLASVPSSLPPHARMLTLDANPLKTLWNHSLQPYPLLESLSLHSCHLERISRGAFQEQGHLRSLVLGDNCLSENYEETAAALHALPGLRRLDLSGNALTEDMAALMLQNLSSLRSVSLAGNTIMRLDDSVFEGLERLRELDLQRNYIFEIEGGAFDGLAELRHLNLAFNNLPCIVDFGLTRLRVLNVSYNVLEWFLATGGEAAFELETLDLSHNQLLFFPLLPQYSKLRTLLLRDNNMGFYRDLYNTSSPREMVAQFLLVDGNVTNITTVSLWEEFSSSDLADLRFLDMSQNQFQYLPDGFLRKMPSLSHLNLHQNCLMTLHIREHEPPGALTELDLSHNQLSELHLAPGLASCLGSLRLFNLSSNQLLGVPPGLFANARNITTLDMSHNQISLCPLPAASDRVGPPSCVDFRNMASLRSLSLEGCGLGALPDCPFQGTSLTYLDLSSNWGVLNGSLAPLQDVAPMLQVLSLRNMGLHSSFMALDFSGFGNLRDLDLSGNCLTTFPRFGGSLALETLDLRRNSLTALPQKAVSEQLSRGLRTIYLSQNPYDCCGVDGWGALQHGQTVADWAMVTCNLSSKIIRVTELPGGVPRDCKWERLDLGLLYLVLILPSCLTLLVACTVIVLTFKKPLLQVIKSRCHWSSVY

[5] = biological target: T1, human LRRC33-proTGFβ1 complex (human, UniProt P01137 30-390; Q86YC3 19-650); assay: BLI (Octet)
T1 construct: also called hLRRC33-proTGFβ1; hLRRC33
T1 sequence (P01137 30-390 limits assumed, chain 1 of 2): as the sequence (P01137 30-390 limits assumed, chain 1 of 2) above
T1 sequence (Q86YC3 other isoform, or with tags, fused parts or gaps limits assumed, chain 2 of 2): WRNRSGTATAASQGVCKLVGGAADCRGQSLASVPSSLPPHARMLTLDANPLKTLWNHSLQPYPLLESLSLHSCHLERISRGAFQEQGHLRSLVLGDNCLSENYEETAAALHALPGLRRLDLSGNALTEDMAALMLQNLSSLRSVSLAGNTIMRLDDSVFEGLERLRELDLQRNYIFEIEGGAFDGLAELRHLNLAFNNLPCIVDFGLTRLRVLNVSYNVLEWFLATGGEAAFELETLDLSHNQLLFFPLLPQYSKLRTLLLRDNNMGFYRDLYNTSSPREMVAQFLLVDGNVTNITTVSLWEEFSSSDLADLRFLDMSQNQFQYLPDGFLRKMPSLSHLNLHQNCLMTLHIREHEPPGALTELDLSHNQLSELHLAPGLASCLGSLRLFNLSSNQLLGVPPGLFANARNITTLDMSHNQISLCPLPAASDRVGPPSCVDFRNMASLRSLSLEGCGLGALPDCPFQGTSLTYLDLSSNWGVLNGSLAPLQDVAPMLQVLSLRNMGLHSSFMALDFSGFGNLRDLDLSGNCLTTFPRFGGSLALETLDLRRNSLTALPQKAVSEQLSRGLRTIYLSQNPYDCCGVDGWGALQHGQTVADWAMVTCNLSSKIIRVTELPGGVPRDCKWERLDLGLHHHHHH
Method: (§1) The affinity of anti-TGFβ1 antibodies was measured by Octet@ assay on human proTGFβ1 cells, while activity was measured by CAGA12 reporter cells testing human proTGFβ1 inhibition.

[6] = biological target: T2, human GARP-proTGFβ1 complex (human, UniProt P01137 30-390; Q14392 20-627); assay: BLI (Octet)
T2 construct: also called hGARP-proTGFβ1; hGARP
T2 sequence (P01137 30-390, chain 1 of 2): as the sequence (P01137 30-390 limits assumed, chain 1 of 2) above
T2 sequence (Q14392 20-627, chain 2 of 2): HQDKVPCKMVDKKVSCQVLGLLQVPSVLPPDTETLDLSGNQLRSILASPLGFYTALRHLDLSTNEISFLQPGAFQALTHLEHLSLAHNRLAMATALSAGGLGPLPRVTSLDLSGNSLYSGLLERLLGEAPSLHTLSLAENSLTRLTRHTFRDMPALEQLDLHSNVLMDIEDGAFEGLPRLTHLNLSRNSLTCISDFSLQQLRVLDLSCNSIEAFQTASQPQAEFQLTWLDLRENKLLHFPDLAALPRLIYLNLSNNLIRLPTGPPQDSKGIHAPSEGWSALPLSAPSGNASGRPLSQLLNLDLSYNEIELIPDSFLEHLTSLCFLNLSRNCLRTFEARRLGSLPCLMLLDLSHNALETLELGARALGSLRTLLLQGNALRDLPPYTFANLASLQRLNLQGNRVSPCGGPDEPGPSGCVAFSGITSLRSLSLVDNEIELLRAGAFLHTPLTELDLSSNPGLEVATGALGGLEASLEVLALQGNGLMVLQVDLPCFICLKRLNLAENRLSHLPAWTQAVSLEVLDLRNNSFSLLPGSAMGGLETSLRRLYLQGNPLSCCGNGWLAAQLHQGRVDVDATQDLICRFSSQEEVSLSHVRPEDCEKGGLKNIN
Method: as §1

Sequence of hGARP-proTGFβ1 presented on cells (P01137 30-390 limits assumed, chain 1 of 2): as the sequence (P01137 30-390 limits assumed, chain 1 of 2) above
Sequence of hGARP-proTGFβ1 presented on cells (Q14392 20-662 limits assumed, chain 2 of 2): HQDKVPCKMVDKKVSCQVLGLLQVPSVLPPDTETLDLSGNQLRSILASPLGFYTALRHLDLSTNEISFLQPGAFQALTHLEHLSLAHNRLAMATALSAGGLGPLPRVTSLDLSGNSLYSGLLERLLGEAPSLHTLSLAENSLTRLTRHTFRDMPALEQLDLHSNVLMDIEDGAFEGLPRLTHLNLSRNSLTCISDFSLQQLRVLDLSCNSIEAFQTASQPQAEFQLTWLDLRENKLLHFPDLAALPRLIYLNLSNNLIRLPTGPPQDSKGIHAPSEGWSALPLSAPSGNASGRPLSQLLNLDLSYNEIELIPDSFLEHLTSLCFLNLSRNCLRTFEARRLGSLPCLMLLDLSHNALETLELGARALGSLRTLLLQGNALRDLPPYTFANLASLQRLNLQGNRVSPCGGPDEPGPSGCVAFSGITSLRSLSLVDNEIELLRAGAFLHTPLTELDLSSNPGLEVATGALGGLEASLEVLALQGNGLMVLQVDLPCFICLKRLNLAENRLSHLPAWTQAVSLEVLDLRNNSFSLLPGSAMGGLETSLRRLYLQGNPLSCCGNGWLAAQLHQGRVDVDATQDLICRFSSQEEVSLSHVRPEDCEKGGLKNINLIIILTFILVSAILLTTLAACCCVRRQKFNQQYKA
Sequence of hLTBP1-proTGFβ1 as produced in the cell-based activation assay (P01137 30-390 limits assumed, chain 1 of 2): as the sequence (P01137 30-390 limits assumed, chain 1 of 2) above
Sequence of hLTBP1-proTGFβ1 as produced in the cell-based activation assay (Q14766 347-1721 limits assumed, chain 2 of 2): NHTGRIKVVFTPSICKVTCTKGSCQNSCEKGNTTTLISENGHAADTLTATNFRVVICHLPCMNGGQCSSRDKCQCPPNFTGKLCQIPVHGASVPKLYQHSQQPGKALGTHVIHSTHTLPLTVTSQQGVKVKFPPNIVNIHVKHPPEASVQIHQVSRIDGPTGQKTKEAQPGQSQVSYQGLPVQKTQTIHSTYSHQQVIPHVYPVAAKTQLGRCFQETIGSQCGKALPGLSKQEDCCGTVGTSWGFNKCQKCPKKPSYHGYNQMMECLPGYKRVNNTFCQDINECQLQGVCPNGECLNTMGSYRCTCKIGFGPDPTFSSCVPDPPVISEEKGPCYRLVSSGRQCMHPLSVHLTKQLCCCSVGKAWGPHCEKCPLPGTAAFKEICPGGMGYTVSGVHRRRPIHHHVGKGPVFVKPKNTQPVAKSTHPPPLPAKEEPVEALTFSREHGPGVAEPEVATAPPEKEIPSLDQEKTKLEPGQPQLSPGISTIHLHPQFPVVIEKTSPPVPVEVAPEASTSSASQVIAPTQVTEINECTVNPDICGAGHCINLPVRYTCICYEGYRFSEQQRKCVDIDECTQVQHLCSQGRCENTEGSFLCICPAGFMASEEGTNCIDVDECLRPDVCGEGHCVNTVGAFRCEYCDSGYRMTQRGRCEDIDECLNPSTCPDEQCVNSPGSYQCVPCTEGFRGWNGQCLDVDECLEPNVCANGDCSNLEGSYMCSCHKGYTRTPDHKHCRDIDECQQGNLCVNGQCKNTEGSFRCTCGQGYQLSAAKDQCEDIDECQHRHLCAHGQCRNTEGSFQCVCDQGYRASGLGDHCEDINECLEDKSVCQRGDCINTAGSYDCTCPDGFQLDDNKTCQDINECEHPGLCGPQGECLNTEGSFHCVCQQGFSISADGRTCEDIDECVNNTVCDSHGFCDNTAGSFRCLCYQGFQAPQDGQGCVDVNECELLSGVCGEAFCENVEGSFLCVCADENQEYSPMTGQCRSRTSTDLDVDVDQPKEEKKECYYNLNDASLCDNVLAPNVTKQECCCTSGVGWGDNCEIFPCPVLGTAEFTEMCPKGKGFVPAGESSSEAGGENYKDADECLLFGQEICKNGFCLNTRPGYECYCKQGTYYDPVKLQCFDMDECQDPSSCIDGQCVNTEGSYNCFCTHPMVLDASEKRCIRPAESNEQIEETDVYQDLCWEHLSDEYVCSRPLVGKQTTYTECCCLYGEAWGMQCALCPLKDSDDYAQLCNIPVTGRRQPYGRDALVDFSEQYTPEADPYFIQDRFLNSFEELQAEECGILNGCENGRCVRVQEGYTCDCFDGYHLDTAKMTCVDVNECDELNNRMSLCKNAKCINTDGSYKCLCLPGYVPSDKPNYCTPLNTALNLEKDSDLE

| Binder | IC50, reporter cell assay [1] [nM] | IC50, reporter cell assay [2] [nM] | IC50, reporter cell assay [3] [nM] | IC50, reporter cell assay [4] [nM] | Kd [5] [nM] | Kd [6] [nM] |
| --- | --- | --- | --- | --- | --- | --- |
| Ab5 (antibody, V domains shown) VH: EVQLVESGGGLVQPGGSLRLSCAASGFTFSSFSMDWVRQAPGKGLEWVSYISPDASTIYYADSVKGRFTISRDNAKNSLYLQMNSLRAEDTAVYYCARGVLDYGDMLDPWGQGTLVTVSS VL: DIQMTQSPSSLSASVGDRVTITCQASQDITNYLNWYQQKPGKAPKLLIYDASNLETGVPSRFSGSGSGTDFTFTISSLQPEDIATYYCQQADNHPPWTFGGGTKVEIK | 0.14 | 1.29 | 1 | 0.616 | – | – |
| Ab21 (antibody, V domains shown) VH: EVQLVESGGGLVQPGGSLRLSCAASGFTFSSFSMDWVRQAPGKGLEWVSYISPDASTIYYADSVKGRFTISRDNAKNSLYLQMNSLRAEDTAVYYCARGVLDYGDMLDPWGQGTLVTVSS VL: DIQMTQSPSSLSASVGDRVTITCQASQDITNYLNWYQQKPGKAPKLLIYDASNLETGVPSRFSGSGSGTDFTFTISSLQPEDIATYYCQQADNHPPWTFGGGTKVEIK | 0.401 | 1.61 | 0.765 | 0.596 | 0.455 | 0.833 |
| Ab23 (antibody, V domains shown) VH: EVQLVESGGGLVQPGGSLRLSCAASGFTFSSFSMNWVRQAPGKGLEWVSYISPSADTIYYADSVKGRFTISRDNAKNTLYLQMNSLRAEDTAVYYCARGVLDYGDMLDPWGQGTLVTVSS VL: DIQMTQSPSSLSASVGDRVTITCQASQDITNYLNWYQQKPGKAPKLLIYDASNLETGVPSRFSGSGSGTDFTFTISSLQPEDIATYYCQQADNHPPWTFGGGTKVEIK | 0.264 | 0.835 | 0.879 | 0.579 | 0.455 | 1.34 |
| Ab25 (antibody, V domains shown) VH: EVQLVESGGGLVQPGGSLRLSCAASGFTFGSFSMDWVRQAPGKGLEWVSYISPDASTIYYADSVKGRFTISRDNAKNSLYLQMNSLRAEDTAVYYCARGVLDYGDMLDPWGQGTLVTVSS VL: DIQMTQSPSSLSASVGDRVTITCQASQDITNYLNWYQQKPGKAPKLLIYDASNLETGVPSRFSGSGSGTDFTFTISSLQPEDIATYYCQQADNHPPWTFGGGTKVEIK | 0.442 | 6.08 | 0.538 | 0.653 | 0.409 | 0.488 |
| Ab27 (antibody, V domains shown) VH: EVQLVESGGGLVQPGGSLRLSCAASGFTFSFYAMNWVRQAPGKGLEWVSYISPDASTIYYADSVKGRFTISRDNAKNSLYLQMNSLRAEDTAVYYCARGVLDYGDMLDPWGQGTLVTVSS VL: DIQMTQSPSSLSASVGDRVTITCQASQDITNYLNWYQQKPGKAPKLLIYDASNLETGVPSRFSGSGSGTDFTFTISSLQPEDIATYYCQQADNHPPWTFGGGTKVEIK | – | – | – | – | 0.299 | 0.424 |
| Ab28 (antibody, V domains shown) VH: EVQLVESGGGLVQPGGSLRLSCAASGFTFSSFSMDWVRQAPGKGLEWVSYISPDASTIYYADSVKGRFTISRDNAKNSLYLQMNSLRAEDTAVYYCVRGVLDYGDMLDPWGQGTLVTVSS VL: DIQMTQSPSSLSASVGDRVTITCQASQDITNYLNWYQQKPGKAPKLLIYDASNLETGVPSRFSGSGSGTDFTFTISSLQPEDIATYYCQQADNHPPWTFGGGTKVEIK | – | – | – | – | 0.409 | 0.797 |
| Ab16 (antibody, V domains shown) VH: EVQLLESGGGLVQPGGSLRLSCAASGFTFSNYAMSWVRQAPGKGLEWVSAISGSGFTTYYADSVKGRFTISRDNSKNTLYLQMNSLRAEDTAVYYCARVSSGHWDFDYWGQGTLVTVSS VL: DIQLTQSPSSLSASVGDRVTITCRASQSISSYLNWYQQKPGKAPKLLIYAASNLQSGVPSRFSGSGSGTDFTLTISSLQPEDFATYYCQQTYTVPLTFGGGTKVEIK | – | – | – | – | 0.631 | 4.16 |
| Ab14 (antibody, V domains shown) VH: EVQLLESGGGLVQPGGSLRLSCAASGFTFSAYAMTWVRQAPGKGLEWVSAISGTGGSTYYADSVKGRFTISRDNSKNTLYLQMNSLRAEDTAVYYCARVSSGHWDFDYWGQGTLVTVSS VL: DIQMTQSPSSLSASVGDRVTITCRASQSISSYLNWYQQKPGKAPKLLIYAASSLQSGVPSRFSGSGSGTDFTLTISSLQPEDFATYYCQQVYDPPLTFGGGTKVEIK | – | – | – | – | 1.34 | 10.5 |
| Ab15 (antibody, V domains shown) VH: EVQLVESGGGVVQPGRSLRLSCAASGFTFSDYAMVWVRQAPGKGLEWVSAISGSGFTTYYADSVKGRFTISRDNSKNTLYLQMNSLRAEDTAVYYCARVSSGHWDFDYWGQGTLVTVSS VL: DIQLTQSPSSLSASVGDRVTITCRASQSISSYLNWYQQKPGKAPKLLIYAASNLQSGVPSRFSGSGSGTDFTLTISSLQPEDFATYYCQQTYTVPLTFGGGTKVEIK | – | – | – | – | 0.702 | 7.01 |
| Ab17 (antibody, V domains shown) VH: EVQLLESGGGVVQPGGSLRLSCAASGFTFSSFAMTWVRQAPGKGLEWVSAISGSGAATYFADSVKGRFTISRDNSKNTLYLQMNSLRAEDTAVYYCARVSSGHWDFDYWGQGTLVTVSS VL: DIQLTQSPSSLSASVGDRVTITCRASQSISSYLNWYQQKPGKAPKLLIYAASNLQSGVPSRFSGSGSGTDFTLTISSLQPEDFATYYCQQTYTVPLTFGGGTKVEIK | – | – | – | – | 0.658 | 8.62 |
| Ab18 (antibody, V domains shown) VH: QVQLVESGGGVVQPGRSLRLSCAASGFTFSDYAMVWVRQAPGKGLEWVSAISGSGAATYFADSVKGRFTISRDNSKNTLYLQMNSLRAEDTAVYYCATVSSGHWDFDYWGQGTLVTVSS VL: DIQLTQSPSSLSASVGDRVTITCRASQSISSYLNWYQQKPGKAPKLLIYAASNLQSGVPSRFSGSGSGTDFTLTISSLQPEDFATYYCQQTYTVPLTFGGGTKVEIK | – | – | – | – | 1.02 | 11.5 |
| Ab1 (antibody, V domains shown) VH: EVQLLESGGGLVQPGGSLRLSCAASGFTFRNYAMSWVRQAPGKGLEWVSSISGSGGATYYADSVKGRFTISRDNSKNTLYLQMNSLRAEDTAVYYCARVSSGHWDFDYWGQGTLVTVSS VL: DIQLTQSPSSLSASVGDRVTITCQASQDISNFLNWYQQKPGKAPKLLIYDASNLETGVPSRFSGSGSGTDFTFTISSLQPEDIATYYCQQVFNPPLTFGGGTKVEIK | 3.71 | 14.5 | 2.71 | 5.37 | – | – |
| Ab36 (antibody, V domains shown) VH: EVQLLESGGGLVQPGGSLRLSCAASGFTFRNYAMSWVRQAPGKGLEWVSSISGSGGATYYADSVKGRFTISRDNSKNTLYLQMNSLRAEDTAVYYCARVSSGHWDLDYWGQGTLVTVSS VL: not shown | – | – | – | – | 1.42 | 12.8 |
| Ab7 (antibody, V domains shown) VH: EVQLLESGGGLVQPGGSLRLSCAASGFTFADYAMTWVRQAPGKGLEWVSAISGTGAHTYYADSVKGRFTISRDNSKNTLYLQMNSLRAEDTAVYYCARVSSGHWDFDYWGQGTLVTVSS VL: not shown | – | – | – | – | 10.3 | 18 |
| Ab8 (antibody, V domains shown) VH: QVQLVESGGGVVQPGRSLRLSCAASGFTFSDYAMVWVRQAPGKGLEWVSAISGSGFTTYYADSVKGRFTISRDNSKNTLYLQMNSLRAEDTAVYYCARVSSGHWDFDYWGQGTLVTVSS VL: not shown | – | – | – | – | 10 | 15.4 |
| Ab9 (antibody, V domains shown) VH: QVQLVESGGGVVQPGGSLRLSCAASGFTFSSFAMTWVRQAPGKGLEWVSAISGSGAATYFADSVKGRFTISRDNSKNTLYLQMNSLRAEDTAVYYCARVSSGHWDFDYWGQGTLVTVSS VL: not shown | – | – | – | – | 1.3 | 15.5 |
| Ab10 (antibody, V domains shown) VH: EVQLLESGGGLVQPGGSLRLSCAASGFTFRNYAMSWVRQAPGKGLEWVSSISGSGGATYYADSVKGRFTISRDNSKNTLYLQMNSLRAEDTAVYYCARVSSGHWDFDYWGQGTLVTVSS VL: not shown | – | – | – | – | 1.06 | 10.2 |
| Ab13 (antibody, V domains shown) VH: EVQLLESGGGLVQPGGSLRLSCAASGFTFADYAMTWVRQAPGKGLEWVSAISSFASAIYYADSVKGRFTISRDNSKNTLYLQMNSLRAEDTAVYYCARVSSGHWDFDYWGQGTLVTVSS VL: DIQMTQSPSSLSASVGDRVTITCRASQSISSYLNWYQQKPGKAPKLLIYAASSLQSGVPSRFSGSGSGTDFTLTISSLQPEDFATYYCQQVYDPPLTFGGGTKVEIK | – | – | – | – | 1.4 | 10 |
